Assay results from publication PMC11648230 (2024).

Biological target: Aquifex aeolicus TsaD2B^mut2 tetramer (Aquifex aeolicus | Thermotoga maritima, UniProt O66986 1-335)
Experiment: ITC

Chain of Aquifex aeolicus TsaD2B^mut2 tetramer (O66986 whole entry, chain 1 of 2): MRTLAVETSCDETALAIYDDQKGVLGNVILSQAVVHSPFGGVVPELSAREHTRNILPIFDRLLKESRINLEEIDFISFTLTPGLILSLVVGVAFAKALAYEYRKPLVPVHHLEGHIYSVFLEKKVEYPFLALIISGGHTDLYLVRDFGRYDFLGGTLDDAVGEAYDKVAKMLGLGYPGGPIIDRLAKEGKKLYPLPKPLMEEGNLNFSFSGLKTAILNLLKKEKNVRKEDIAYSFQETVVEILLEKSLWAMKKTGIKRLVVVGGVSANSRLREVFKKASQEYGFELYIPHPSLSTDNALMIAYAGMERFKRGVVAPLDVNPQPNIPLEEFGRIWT
Chain of Aquifex aeolicus TsaD2B^mut2 tetramer (chain, as listed by the source, chain 2 of 2): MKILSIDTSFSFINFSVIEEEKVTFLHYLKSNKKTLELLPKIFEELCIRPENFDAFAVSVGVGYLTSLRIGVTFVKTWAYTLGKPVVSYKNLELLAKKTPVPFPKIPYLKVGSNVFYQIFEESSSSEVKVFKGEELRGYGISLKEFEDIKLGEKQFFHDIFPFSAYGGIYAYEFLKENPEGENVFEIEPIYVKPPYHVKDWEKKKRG

B1: Aquifex aeolicus TsaE (enzyme)
chain: MELLKEVILESEEDTYKLAEEIAQLLKGSEVICLRGTLGAGKTTFVKALAKALKVKNPSAVRSPTFTLVNEYETDKGKLIHIDLYRVPDFDYSEFIGEGILAVEWEERDKPCDIILEIEILDENKRKVRIYRK
modifications: T. maritima TsaB C-tail WEKKKRG (200-206) grafted after residue 200 of A. aeolicus TsaB (new positions 201-207); C-terminal 6His tag on TsaB omitted; TsaD carries a bound divalent metal (Fe2+ or Zn2+); Cys10 of TsaD seen oxidised (CSO) in the crystal; ITC with TsaE done with AMPPNP/Mg2+
Work on B1 yielded a Kd of 2870 nM.
